# From the supplement of paper PMC10567573
# ± gives the standard deviation.
# Experiment: protein stability index of a GFP-peptide fusion (GPS, HEK-293T) (PSI 1-6); higher = more stable
# Settings: c terminus: a fixed tail appended
# 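Also: 24-mer peptide tiles fused after GFP, lentivirally expressed, FACS-sorted into six equal bins by GFP/DsRed ratio, decoded by Illumina sequencing, PSI is the read-weighted mean bin number.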
Sequence,protein stability index (treatment: DMSO),"protein stability index (treatment: MLN4924 1 uM, 8 h)"
KLRFNRKKKGMYRKAITEAANAAR [PWWP2B],3.42 ± 0.23,3.29 ± 0.2
VRMSADAMLKALLGSKHKVCMDLR [TNNI2],2.25 ± 0.45,2.1 ± 0.3
VTLQCLAARALDKNKIPYKGFIPE [FEM1A],2.69 ± 0.27,2.67 ± 0.28
PTESEPVTINIQDLLSCSNFAVQH [MATN2],3.56 ± 0.5,3.37 ± 0.43
SLSDQMSVLQSVWMEVLVLGVAQR [ESRRA],3.33 ± 0.35,2.98 ± 0.46
ECTQMDHLGCMHYTVRAPVGVAGL [ALDH8A1],2.51 ± 0.37,2.68 ± 0.36
LKASMRELGLLIFFLFIGVILFSS [KCNA1],2.33 ± 0.45,2.31 ± 0.48
KSGEEAVTVLEDLEKGLEPEPQVP [ZNF232],5.63 ± 0.17,5.62 ± 0.16
FFGMAFNFIVNDSRKKPIWNVLMW [SOAT1],2.6 ± 0.55,2.19 ± 0.73
MKYYIVHLKRHFMFRNHLCLVFEL [DYRK1B],2.9 ± 0.53,2.44 ± 0.63
PCVRPGVSGSPVTQNHAASALPTG [FBF1],4.45 ± 0.26,4.5 ± 0.06
DAILYYYQSGGRLKRPVNVPFDIF [KCNA4],2.58 ± 0.54,2.52 ± 0.63
LCSSPLEAETPPNGPDCGYGSFHQ [ATE1],4.28 ± 0.18,4.24 ± 0.079
AFHGAPSHLPTRSPSFPEAPDSGR [TBX6],4.32 ± 0.26,4.37 ± 0.38
SLSPSPLGSSAASTALERPSFLSQ [FCHO1],4.09 ± 0.25,3.98 ± 0.19
LNQQVVSSSEQLQCCQTEIIELRR [KRT36],4.29 ± 0.22,4.04 ± 0.27
RWMGLACFRSLAASSPSIRQKKLM [CCDC70],2.29 ± 0.61,2.29 ± 0.4
KKYVKGDVSLCRWHPKPYCQALPY [FBXO34],2.31 ± 0.45,2.05 ± 0.28
TSTPPPASVINNMLAEIFCQTGGV [ZBED1],2.84 ± 0.076,2.73 ± 0.23
MPHARTETSVGTYESHSTSELEDL [TPD52L3],5.43 ± 0.18,5.37 ± 0.3
EAVESRGGVPGGCVLVPRADLRLG [SMAD6],4.07 ± 0.47,4.34 ± 0.17
TYWQCGQYLGVGPGAHGRFMPQGA [RSAD1],2.27 ± 0.26,2.65 ± 0.49
EDTQRHETYHQQGQCQVLVQRSPW [TCAP],4.03 ± 0.29,3.79 ± 0.17

Sequence,protein stability index (treatment: DMSO),"protein stability index (treatment: MLN4924 1 uM, 8 h)"
VARPVRFPREHQFFEDGDVQRHLY [ZNF511],3.31 ± 0.17,3.55 ± 0.38
ETCSCGYYLHPLPAGAEYCSSARH [SCNN1D],3.52 ± 0.36,3.63 ± 0.43
GAVTASKHSNSPPLVTPPQSPVSP [SMTNL2],5.33 ± 0.25,5.26 ± 0.19
FPRLNRNKYMVTDGAAYIGNFDWV [PLD5],2.32 ± 0.89,2.32 ± 0.23
HLYQSSARRYAGPLHHQTQRFRLD [ELAVL3],2.99 ± 0.18,3.05 ± 0.32
FFLAILSCSEICYTFIIVPKMLVD [OR10K2],3.42 ± 0.36,2.89 ± 0.28
MDYKSSLIQDGNPMENLEKQLICP [TRIM63],4.06 ± 0.29,4.14 ± 0.16
KARSNSTLSKSEYMVIEEGGMNHS [KCNA3],4.57 ± 0.38,4.33 ± 0.15
VMSALWVSGLDSSYLREQMLNEPL [GAN],2.83 ± 0.24,2.29 ± 0.54
HCRKCGQAVCGKCSSKRSSYPVMG [WDFY1],3.88 ± 0.3,3.91 ± 0.34
HSFFPDAFDYNSLSPTQRQKNFEL [SMTNL2],3.35 ± 0.19,3.44 ± 0.4
HNTVKLGAFQAQEKELVFDIDMTD [PRIM1],4.22 ± 0.19,4.52 ± 0.28
IYRHRIPSTICFGQGAARGFKSNK [ZNF511],3 ± 0.37,3.64 ± 0.13
RMLEFDPAQRITLAEALLHPFFAG [CLK3],2.38 ± 0.25,2.39 ± 0.19
GHRPPPARSGHRCVADNTNLYVFG [KLHDC10],2.3 ± 0.33,2.44 ± 0.24
ERMTTREKKVLEAGMGKVTSASFG [HDAC6],4.1 ± 0.14,4.19 ± 0.14
GNDFTQNAGTGLVINQADVRNNRS [PLD5],4.58 ± 0.35,4.55 ± 0.35
PQPLSFKEPPLLLGVLHPNTKLRQ [APMAP],3.48 ± 0.17,3.59 ± 0.2
SWEGLAVLDSLLLTLLPQLQEAWQ [RSAD1],3.27 ± 0.35,3.22 ± 0.52
DTELLGQATLPVGSPSRPLSRRQL [C2CD2L],4.74 ± 0.18,4.81 ± 0.15
SFRQGMHLTRHQRTHTGEKPYKCT [ZNF263],3.57 ± 0.65,3.7 ± 0.49
AVVASSVNSYYSSPAQQVPKNPAL [TOR1AIP2],3.51 ± 0.16,3.46 ± 0.18
ARQETKEMARKVIEHCSNFKEENM [ZER1],4.74 ± 0.23,4.57 ± 0.45

Sequence,protein stability index (treatment: DMSO),"protein stability index (treatment: MLN4924 1 uM, 8 h)"
INYLGAESLRPLVQTPPGGSEVVP [IKZF1],4.07 ± 0.2,3.88 ± 0.28
CSGTELSLAHCRHDGEDVACPQGG [LOXL2],4.78 ± 0.73,4.3 ± 0.24
RMDTPPPEERLEKQNEKLNNQEEE [CCDC89],5.55 ± 0.29,5.48 ± 0.28
DLAALKQRLEEETRKREDAEHNLV [PRPH],4.96 ± 0.46,4.6 ± 0.4
SPSKSFWTRITCAEEGWSPTPKCL [CFHR2],2.17 ± 0.22,2.47 ± 0.33
TAERITQLSAPHCKKLSLELGGKN [ALDH8A1],3.75 ± 0.21,3.98 ± 0.19
AKGLAESLELPKAIQDQLPRLQQL [FANCE],3.95 ± 0.12,4.15 ± 0.3
VTHREGAPPLPGAESFPGSQVMGS [PLEKHN1],4.63 ± 0.14,4.51 ± 0.11
ICARACNATLTQYQLLATHVPTVW [RHOBTB2],2.67 ± 0.13,2.41 ± 0.4
DKFQWLAGLAPPSLFARAMQVLVT [ANKRD9],2.56 ± 0.44,2.29 ± 0.15
SESRKPTVSIMEPGETRRNSYPRA [TRIM29],4.79 ± 0.12,4.43 ± 0.19
KLGAPLSGLQGLPECTRCGHGIVG [PDLIM4],2.65 ± 0.25,2.75 ± 0.36
HAGEHLLLGATKRSMVFKDVLLLG [HNF4A],2.26 ± 0.33,2.35 ± 0.4
KIANLGSCNDSKLEFRSFWELIGE [S100A14],1.91 ± 0.33,2.11 ± 0.38
HLFAGAEVILLVVMAYDRYMAICK [OR4A15],2.67 ± 0.29,3.02 ± 0.68
VCLPRSEDDDCDDDDDDDAQILPS [DRICH1],5.38 ± 0.22,5.14 ± 0.09
SPNFGFMGQLLQYESEILPSTPNP [DUSP5],3.59 ± 0.092,3.45 ± 0.48
YSNTKENGINGELTSADRETAEEV [MAP2],5.47 ± 0.13,5.44 ± 0.24
APYAAAAAAQSYPGYLPYSPEPPS [IRX6],4.06 ± 0.14,4.2 ± 0.15
PEEGQQPWLCGESFTLADVSLAVT [GDAP1],3.27 ± 0.23,3.4 ± 0.21
AWAAHTRLFQVVGKTDDTLALLNL [TMEM175],2.25 ± 0.13,2.03 ± 0.042
DPHNSRRGFFFSHVGWLLVRKHPA [SCD],2.33 ± 0.27,2.3 ± 0.35
KCCGMRNTDVSMENMVTVGFFSCM [KCNK9],2.59 ± 0.48,2.51 ± 0.44

Sequence,protein stability index (treatment: DMSO),"protein stability index (treatment: MLN4924 1 uM, 8 h)"
NYLAEHCPPLHIPGSMSEVQELCK [TNNI2],3.91 ± 0.19,3.78 ± 0.11
ERGVEGDFLIRDSESSPSDFSVSL [NCK2],4.37 ± 0.2,4.26 ± 0.25
AAHRLARRLYHLEGFQRCDVARQL [PSD2],2.21 ± 0.43,2.46 ± 0.46
AQVLMLGQILELPWKEETFLVLQS [FANCE],2.47 ± 0.33,2.65 ± 0.67
AVKLADFGLAIEVEGEQQAWFGFA [CAMK2A],2.51 ± 0.48,2.26 ± 0.5
QTVGVGRGRFTTYEIRVKTNLPIF [SNX3],2.83 ± 0.067,3.02 ± 0.22
LSSSCCHTVPDFHLSSPAKNFFKK [PLK2],2.99 ± 0.18,3.25 ± 0.31
AAGELESMGFSARYNFTPDPDFKD [NETO1],4.71 ± 0.2,4.61 ± 0.18
TLCAVLERDTLSIRESRLFGAVVR [BTBD1],2.4 ± 0.38,2.22 ± 0.56
LAPNFRWAIPNRQINDGMGGDGDD [BEX3],4.77 ± 0.22,4.6 ± 0.26
EQHNWNIEAAVQDRLNEQEGVPSV [FAF2],5.05 ± 0.22,5.17 ± 0.32
SLLVHGFKPACMSEIKNLERYMCS [TENT5D],2.48 ± 0.41,2.41 ± 0.29
RDTTGVSQMFPSSKARTKSLLGDD [FBF1],4.83 ± 0.056,4.82 ± 0.14
SIVTAAKKDILLVNDHLLNFVRER [PDS5B],2.25 ± 0.16,2.3 ± 0.27
LQVRGYPEEKKEEEGSANRRPEDQ [CHGA],5.61 ± 0.21,5.7 ± 0.25
FIALLILFILSTLVVDYIDEGRLV [SOAT1],3.18 ± 0.3,3.26 ± 0.5
LARKIASRNEFDRTIAETEAAYLK [SSNA1],3.57 ± 0.23,3.74 ± 0.3
WPRNPPSRLLGAAAGQRSRPSTYY [DNAJC4],3.24 ± 0.25,3.67 ± 0.4
REEQQLLASTSKPVVKLLHNRSNN [KCTD13],4.75 ± 0.23,4.89 ± 0.14
EVSCQCQLHPPRWYSRLQACQWGG,2.17 ± 0.13,2.29 ± 0.4
